Experimental data published in the supplement of paper PMC7877785.
± gives the uncertainty stated by the source.

Assay: self-splicing fitness, log relative to wild type (ln ratio); higher = more splicing; Tetrahymena group I intron in knt gene, E. coli kanamycin selection, DiMSum; sequences stand for … in CUCUCU…GGAGGGAAAAGUUAUCAGGCAUGCACCUGGUAGCUAGUCUUUAAACCAAUAGAUUGCAUCGGUUUAAAAGGCAAGACCGUCAAAUUGCGGGAAAGGGGUCAACAGCCGUUCAGUACCAAGUCUCAGGGGAAACUUUGAGAUGGCCUUGCAAAGGGUAUGGUAAUAAGCUGACGGACAUGGUCCUAACCACGCAGCCAAGUCCUAAGUCAACAGAUCUUCUGUUGAUAUGGAUGCAGUUCACAGACUAAAUGUCGGUCGGGGAAGAUGUAUUCUUCUCAUAAGAUAUAGUCGGACCUCUCCUUAAUGGGAGCUAGCGGAUGAAGUGAUGCAACACUGGAGCCGCUGGGAACUAAUUUGUAUGCGAAAGUAUAUUGAUUAGUUUUGGAGUACUCGUGGUCG
Outline: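 A randomised library covering all eight P1ex-region intron nucleotides was built with the intron in the knt kanamycin-resistance gene on pET-22b(+) and held in E. coli BL21(DE3). Cells were grown overnight at 37°C or 30°C on LB agar, with or without 25 μg/mL kanamycin, plus 100 μg/mL carbenicillin, 50 μM IPTG and 0.2% rhamnose, and pooled colonies were amplicon-sequenced on an Illumina HiSeq 2500. DiMSum fitness is the error-weighted combination of wild-type-normalised replicate fold changes, kanamycin versus none.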

| Sequence | self-splicing fitness (ln) (30 °C) | self-splicing fitness (ln) (37 °C) |
| --- | --- | --- |
| ACACAGCAAUAUUACGGCGG | -0.95 ± 0.069 | -0.0948 ± 0.088 |
| ACACAGCAAUAUUACGGGAG | -2.04 ± 0.073 | -2.15 ± 0.084 |
| ACACAGCAAUAUUACGGGGU | -3.14 ± 0.11 | -1.42 ± 0.087 |
| ACACAGCAAUAUUACGGGUA | -2.3 ± 0.098 | -1.26 ± 0.074 |
| ACACAGCAAUAUUACGGUAU | -2.59 ± 0.088 | -1.59 ± 0.092 |
| ACACAGCAAUAUUACGGUCU | -0.341 ± 0.05 | 0.298 ± 0.067 |
| ACACAGCAAUAUUACGUAGC | -3.75 ± 0.14 | -2.11 ± 0.12 |
| ACACAGCAAUAUUACGUCCU | -0.17 ± 0.055 | 0.432 ± 0.075 |
| ACACAGCAAUAUUACGUCUA | -1.27 ± 0.072 | -0.282 ± 0.072 |
| ACACAGCAAUAUUACGUGAU | -2.14 ± 0.062 | -1.34 ± 0.086 |
| ACACAGCAAUAUUACGUGGG | -3.5 ± 0.098 | -1.88 ± 0.087 |
| ACACAGCAAUAUUACGUGUA | -3.54 ± 0.11 | -2.06 ± 0.085 |
| ACACAGCAAUAUUACGUGUC | -3.6 ± 0.12 | -3.69 ± 0.2 |
| ACAGAGCAAUAUUACGAAUU | -4.27 ± 0.33 | -1.57 ± 0.2 |
| ACAGAGCAAUAUUACGACAU | -3.246 ± 0.021 | -2.17 ± 0.036 |
| ACAGAGCAAUAUUACGACCA | -0.827 ± 0.21 |  |
| ACAGAGCAAUAUUACGACGU | -1.31 ± 0.091 | -0.557 ± 0.11 |
| ACAGAGCAAUAUUACGAGAU | -3.23 ± 0.19 | -2.55 ± 0.23 |
| ACAGAGCAAUAUUACGAUCU | -1.68 ± 0.22 |  |
| ACAGAGCAAUAUUACGCAAA | -2.6 ± 0.34 | -1.42 ± 0.28 |
| ACAGAGCAAUAUUACGCAAG | -3.99 ± 0.39 | -2.33 ± 0.25 |
| ACAGAGCAAUAUUACGCCCU | -3.23 ± 0.23 | -2.02 ± 0.3 |
| ACAGAGCAAUAUUACGCUGU | -3.87 ± 0.42 | -2.69 ± 0.29 |
| ACAGAGCAAUAUUACGGAAG | -3.52 ± 0.22 | -2.12 ± 0.22 |

| Sequence | self-splicing fitness (ln) (30 °C) | self-splicing fitness (ln) (37 °C) |
| --- | --- | --- |
| ACAGAGCAAUAUUACGGACG | -3.09 ± 0.17 | -0.53 ± 0.33 |
| ACAGAGCAAUAUUACGGAUA | -3.19 ± 0.45 |  |
| ACAGAGCAAUAUUACGGCCA | -3.47 ± 0.19 | -2.29 ± 0.17 |
| ACAGAGCAAUAUUACGUAAG | -2.36 ± 0.11 | -1.73 ± 0.14 |
| ACAGAGCAAUAUUACGUACU | -2.96 ± 0.27 | -2.14 ± 0.21 |
| ACAGAGCAAUAUUACGUCUG | -2.35 ± 0.18 | -1.03 ± 0.21 |
| ACAUAGCAAUAUUACGACUC | -0.657 ± 0.086 | -0.29 ± 0.13 |
| ACAUAGCAAUAUUACGAUCA | -1.71 ± 0.087 | -0.779 ± 0.098 |
| ACAUAGCAAUAUUACGAUGU | -3.82 ± 0.16 | -2.19 ± 0.16 |
| ACAUAGCAAUAUUACGCAGA | -2.47 ± 0.14 | -1.74 ± 0.14 |
| ACAUAGCAAUAUUACGCCAA |  | -2.32 ± 0.28 |
| ACAUAGCAAUAUUACGCUCC | -1.62 ± 0.17 | -2.05 ± 0.23 |
| ACAUAGCAAUAUUACGGAAG | -3.57 ± 0.15 | -3.04 ± 0.22 |
| ACAUAGCAAUAUUACGUCCU | -0.372 ± 0.11 | -0.297 ± 0.12 |
| ACAUAGCAAUAUUACGUGAA | -2.13 ± 0.093 | -1.18 ± 0.1 |
| ACAUAGCAAUAUUACGUGGA | -3.3 ± 0.23 | -2.37 ± 0.14 |
| ACAUAGCAAUAUUACGUGUA | -2.68 ± 0.21 | -2.11 ± 0.22 |
| ACAUAGCAAUAUUACGUGUU | -4.04 ± 0.17 | -2.87 ± 0.14 |
| ACCAAGCAAUAUUACGAAGA | -4.11 ± 0.24 | -1.56 ± 0.14 |
| ACCAAGCAAUAUUACGAAGC | -3.94 ± 0.23 | -0.918 ± 0.15 |
| ACCAAGCAAUAUUACGACAG | -1.81 ± 0.078 | -1.82 ± 0.11 |
| ACCAAGCAAUAUUACGACCU | -0.493 ± 0.074 | -0.169 ± 0.087 |
| ACCAAGCAAUAUUACGAGAU | -3.84 ± 0.13 | -2.65 ± 0.16 |
| ACCAAGCAAUAUUACGAGCG | -0.886 ± 0.062 | -1.31 ± 0.081 |

| Sequence | self-splicing fitness (ln) (30 °C) | self-splicing fitness (ln) (37 °C) |
| --- | --- | --- |
| ACCAAGCAAUAUUACGCCAG | -2.75 ± 0.16 | -1.42 ± 0.18 |
| ACCAAGCAAUAUUACGCUCG | -2.2 ± 0.12 | -1.32 ± 0.13 |
| ACCAAGCAAUAUUACGCUGU | -1.61 ± 0.067 | -0.313 ± 0.074 |
| ACCAAGCAAUAUUACGGAAG | -3.74 ± 0.17 | -3.14 ± 0.19 |
| ACCAAGCAAUAUUACGGAGU | -3.6 ± 0.098 | -2.25 ± 0.12 |
| ACCAAGCAAUAUUACGGCCC | -0.856 ± 0.11 | 0.112 ± 0.16 |
| ACCAAGCAAUAUUACGGCUC | -2.09 ± 0.07 | -0.63 ± 0.084 |
| ACCAAGCAAUAUUACGGGAC | -4.08 ± 0.14 | -2.05 ± 0.12 |
| ACCAAGCAAUAUUACGUAUG | -3.59 ± 0.13 | -2.53 ± 0.12 |
| ACCAAGCAAUAUUACGUCCC | -2.14 ± 0.12 | -0.924 ± 0.17 |
| ACCAAGCAAUAUUACGUCCG | -1.19 ± 0.072 | -1.19 ± 0.11 |
| ACCAAGCAAUAUUACGUGGC | -3.68 ± 0.18 | -2.94 ± 0.18 |
| ACCAAGCAAUAUUACGUUCC | -3.95 ± 0.16 | -1.37 ± 0.12 |
| ACCAAGCAAUAUUACGUUCG | -1.88 ± 0.07 | -0.644 ± 0.093 |
| ACCAAGCAAUAUUACGUUUC | -4.28 ± 0.17 | -2.55 ± 0.14 |
| ACCCAGCAAUAUUACGAAUU | -1.63 ± 0.075 | -0.951 ± 0.094 |
| ACCCAGCAAUAUUACGACCA | -0.474 ± 0.1 | -0.703 ± 0.14 |
| ACCCAGCAAUAUUACGACUG | -2.87 ± 0.23 | -2.72 ± 0.41 |
| ACCCAGCAAUAUUACGAGAA | -1.61 ± 0.23 | -1.24 ± 0.21 |
| ACCCAGCAAUAUUACGAUCG | -1.92 ± 0.073 | -0.696 ± 0.096 |
| ACCCAGCAAUAUUACGCAGA | -1.02 ± 0.068 | -0.231 ± 0.072 |
| ACCCAGCAAUAUUACGCCAU | -4.24 ± 0.23 | -1.88 ± 0.16 |
| ACCCAGCAAUAUUACGCCUA | -1.15 ± 0.073 | -0.478 ± 0.07 |
| ACCCAGCAAUAUUACGCGAG | -1.63 ± 0.078 | -0.948 ± 0.1 |

| Sequence | self-splicing fitness (ln) (30 °C) | self-splicing fitness (ln) (37 °C) |
| --- | --- | --- |
| ACCCAGCAAUAUUACGCGGU | -3.41 ± 0.18 | -3.42 ± 0.21 |
| ACCCAGCAAUAUUACGCUCG | -3.65 ± 0.33 | -2.23 ± 0.26 |
| ACCCAGCAAUAUUACGGAAC | -1.91 ± 0.058 | -0.721 ± 0.066 |
| ACCCAGCAAUAUUACGGAGC | -1.06 ± 0.083 | -0.369 ± 0.1 |
| ACCCAGCAAUAUUACGGAGG | -2.1 ± 0.098 | -1.35 ± 0.12 |
| ACCCAGCAAUAUUACGGAGU | -3.7 ± 0.14 | -1.8 ± 0.1 |
| ACCCAGCAAUAUUACGGCCC | -0.0475 ± 0.11 | -0.539 ± 0.15 |
| ACCCAGCAAUAUUACGGCGC | -0.619 ± 0.062 | 0.132 ± 0.096 |
| ACCCAGCAAUAUUACGGCGG | -2.11 ± 0.08 | -1.04 ± 0.11 |
| ACCCAGCAAUAUUACGGGAA | -0.235 ± 0.044 | -0.102 ± 0.055 |
| ACCCAGCAAUAUUACGGGCA | 0.0145 ± 0.067 | -0.0091 ± 0.077 |
| ACCCAGCAAUAUUACGGGCC | -3.49 ± 0.18 | -1.45 ± 0.14 |
| ACCCAGCAAUAUUACGGUCA | -1.55 ± 0.067 | -0.429 ± 0.069 |
| ACCCAGCAAUAUUACGGUGA | -0.516 ± 0.043 | 0.305 ± 0.059 |
| ACCCAGCAAUAUUACGUACA | -1.85 ± 0.087 | -0.804 ± 0.085 |
| ACCCAGCAAUAUUACGUACC | -1.85 ± 0.12 | -1.63 ± 0.15 |
| ACCCAGCAAUAUUACGUCAU | -1.84 ± 0.049 | -0.414 ± 0.059 |
| ACCCAGCAAUAUUACGUGGU | -3.89 ± 0.11 | -2.76 ± 0.14 |
| ACCCAGCAAUAUUACGUUGC | -2.99 ± 0.089 | -0.989 ± 0.076 |
| ACCCAGCAAUAUUACGUUUC | -2.36 ± 0.062 | -1.35 ± 0.082 |
| ACCGAGCAAUAUUACGACUA | -2.66 ± 0.19 | -1.7 ± 0.17 |
| ACCGAGCAAUAUUACGAGAC | -3.81 ± 0.25 | -2.84 ± 0.4 |
| ACCGAGCAAUAUUACGAGAU | -2.96 ± 0.12 | -2.48 ± 0.18 |
| ACCGAGCAAUAUUACGAUGU | -2.71 ± 0.12 | -1.86 ± 0.12 |
